PMC4038590 (PLoS ONE, 2014)

T1: human Med25 ACtivator Interaction Domain (hMed25-ACID), 6 x his-tagged human Med25_(394-543) (human, UniProt Q71SY5 394-543)
T1 construct: source: 15N-labelled in M9 medium for NMR
T1 sequence (looked up): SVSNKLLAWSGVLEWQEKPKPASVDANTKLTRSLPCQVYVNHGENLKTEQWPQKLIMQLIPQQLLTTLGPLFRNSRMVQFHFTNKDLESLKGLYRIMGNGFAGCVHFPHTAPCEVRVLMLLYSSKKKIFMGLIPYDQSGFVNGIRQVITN

B1: GST-VP16-TADn (Herpes simplex virus VP16 N-terminal transcription activation subdomain, residues 412-452) (domain or fragment)
chain: TAPPTDVSLGDELHLDGEDVAMAHADALDDFDLDMLGDGDS
notes: source: E. coli BL21 pLysS, purified (glutathione-sepharose 4B)
B2: 6 x his-tagged Dreb2a_(168-335) (Dehydration responsive element binding protein 2A, Med25-binding domain 168-253 and activation domain 254-335) (domain or fragment, Arabidopsis thaliana, UniProt O82132 168-335, looked up)
chain: DCESKPFSGGVEPMYCLENGAEEMKRGVKADKHWLSEFEHNYWSDILKEKEKQKEQGIVETCQQQQQDSLSVADYGWPNDVDQSHLDSSDMFDVDELLRDLNGDDVFAGLNQDRYPGNSVANGSYRPESQQSGFDPLQSLNYGIPPFQLEGKDGNGFFDDLSYLDLEN
B3: Arabidopsis thaliana Med25 ACtivator Interaction Domain (aMed25-ACID), Med25_(551-680) (domain or fragment, UniProt Q7XYY2 551-680, looked up)
chain: TSQSKYVKVWEGNLSGQRQGQPVLITRLEGYRSASASDSLAANWPPTMQIVRLISQDHMNNKQYVGKADFLVFRAMSQHGFLGQLQDKKLCAVIQLPSQTLLLSVSDKACRLIGMLFPGDMVVFKPQIPN
notes: source: 15N-labelled in M9 medium for NMR
B4: GST-VP16-TAD (Herpes simplex virus VP16 transcription activation domain, both subdomains, residues 427-485) (domain or fragment)
chain: DGEDVAMAHADALDDFDLDMLGDGDSPGPGFTPHDSAPYGALDMADFEFEQMFTDALGI
notes: as for B1

Tests used:
Conditions in all cases: both partners purified
[1] = molecular target: B3; test: SPR
[2] = molecular target: T1, human Med25 ACtivator Interaction …; test: SPR
[3] = molecular target: B3; test: ITC
[4] = molecular target: B2; test: ITC

Binder: B1
- Kd [1]: 2.4 µM
- Kd [2]: 5.4 µM

Binder: B2
- dH [3]: -21.9 kcal/mol

Binder: B3
- Ka [4]: 328000 M⁻¹
- Kd [4]: 3 µM

Binder: B4
- Kd [1]: 1.8 µM
- Kd [2]: 2.8 µM
